± gives the uncertainty stated by the source.
Test: protein stability index of a GFP-peptide fusion (yeast GPS) (PSI 1-4); higher = more stable; sorted into four equal gates, so the index is relative within each strain
Method in brief: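 Tiled 17-residue yeast protein peptides were fused downstream of GFP in a plasmid that also expresses Cherry, and the pooled library was carried in yeast. Mid-log cultures in leucine-free medium were sorted into four equal gates by GFP/Cherry fluorescence ratio, and plasmids from each gate were PCR-amplified and Illumina-sequenced, with reads assigned to strains by barcodes. The protein stability index for each peptide was each gate's read frequency times its gate number, summed.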

Sequence | protein stability index (doa10∆) | protein stability index (pdr5∆) | protein stability index (san1∆) | protein stability index (ubr1∆)
RGIPRISTLFQRDRHTL [PRP8] | 2.57 ± 0.095 | 2.66 ± 0.16 | 2.08 ± 0.079 | 2.68 ± 0.085
RGKNEIIQNAQRDAVTL [RPO21] | 3.3 ± 0.067 | 2.99 ± 0.078 | 3.23 ± 0.064 | 3.04 ± 0.066
RGQQVENPTDNFIIWIN [GRR1] | 2.08 ± 0.066 | 2.35 ± 0.082 | 2.59 ± 0.063 | 2.61 ± 0.061
RGSLDSEHVFDYFFYFL [NUT1] | 2.8 ± 0.059 | 2.59 ± 0.042 | 2.71 ± 0.041 | 3.16 ± 0.032
RGSSSLYTLVINDAGKA [RPL38] | 1.57 ± 0.061 | 1.26 ± 0.068 | 1.17 ± 0.13 | 1.12 ± 0.086
RHFWGLRVRGQHTKTTG [RPS18A] | 1.81 ± 0.062 | 1.99 ± 0.087 | 1.77 ± 0.12 | 2.16 ± 0.056
RHGSVVEASRRRRSSTN [MED1] | 3.19 ± 0.073 | 3.41 ± 0.078 | 3.26 ± 0.045 | 3.3 ± 0.044
RIARALKQEGAANKTVV [RPL18A] | 3.44 ± 0.22 | 3.39 ± 0.095 | 2.95 ± 0.15 | 3.33 ± 0.052
RIGTIVHKERHDGGFDL [RPS4A] |  | 2.54 ± 0.16 | 1.65 ± 0.17 | 1.99 ± 0.23
RIMEKSVILSVISMFVL [YML031W/NDC1] | 1.31 ± 0.14 | 1.44 ± 0.1 | 1.17 ± 0.11 | 1.12 ± 0.049
RIMSRNFYLKRFISDLL [SWI1] | 2.32 ± 0.058 | 2.37 ± 0.074 | 2.08 ± 0.095 | 1.54 ± 0.034
RIQNRVKLGLNSKMPTR [PRP8] | 2.48 ± 0.16 | 2.92 ± 0.1 | 2.74 ± 0.13 | 2.91 ± 0.13
RIVNHKTKLWGFKWLNK [LIN1] | 2.87 ± 0.13 | 3.1 ± 0.13 | 2.87 ± 0.3 | 2.88 ± 0.091
RKDENQFSYVDSSMTTV [AAR2] | 2.98 ± 0.041 | 3.09 ± 0.045 | 3 ± 0.033 | 3.06 ± 0.04
RKILKKTFKNPKYESLK [RPN5] | 2.87 ± 0.094 | 2.96 ± 0.07 | 3.18 ± 0.094 | 3.19 ± 0.062
RKKRTRRLKRKRRKVRA [RPL41A] | 3.14 ± 0.16 | 3.21 ± 0.13 | 3.15 ± 0.12 | 3.17 ± 0.086
RKLGLLGDKEDEKQSAK [MTW1] | 3.37 ± 0.083 | 3.41 ± 0.09 | 2.94 ± 0.1 | 3.28 ± 0.067
RKMTTDDDINWQELARS [RPT5] | 1.79 ± 0.055 | 2.93 ± 0.072 | 3.16 ± 0.097 | 3 ± 0.07
RKQRVKKKTKKELELER [SWI1] | 2.69 ± 0.13 | 2.96 ± 0.13 | 3.56 ± 0.12 | 2.2 ± 0.13
RKSYKNQIADLSGKFST [ROX3] | 2.76 ± 0.082 | 2.94 ± 0.063 | 2.84 ± 0.06 | 2.92 ± 0.036
RKVENIRTILVNIHHLL [MED7] | 1.55 ± 0.04 | 1.74 ± 0.041 | 1.5 ± 0.087 | 1.32 ± 0.033
RKVREQEELKKRQELEE [MED2] | 1.86 ± 0.039 | 2.36 ± 0.048 | 1.96 ± 0.1 | 2.55 ± 0.033
RLFNVVVQDSQTATQLL [SMC2] | 2.94 ± 0.07 | 2.79 ± 0.11 | 2.61 ± 0.1 | 2.44 ± 0.079
RLGEMERDCVIAYGASQ [RET1] | 3.24 ± 0.095 | 3.28 ± 0.086 | 2.55 ± 0.13 | 3.22 ± 0.062
RLGLIPLQSMDIEQLEY [RPB3] | 2.75 ± 0.067 | 2.92 ± 0.063 | 2.91 ± 0.088 | 2.72 ± 0.083
RLILLLNHRNKNQHRAA [RMP1] | 1.44 ± 0.09 | 1.51 ± 0.079 | 1.34 ± 0.12 | 2.13 ± 0.089
RLISSKMPGGFTITVAR [FAS2] | 1.65 ± 0.038 | 2 ± 0.063 | 1.52 ± 0.073 | 1.92 ± 0.044

Sequence | protein stability index (doa10∆) | protein stability index (pdr5∆) | protein stability index (san1∆) | protein stability index (ubr1∆)
RLLPNGSNKAQISIIDI [YML031W/NDC1] | 2.91 ± 0.076 | 3.11 ± 0.067 | 2.6 ± 0.048 | 2.92 ± 0.035
RLRQGAAKLRTLDYAER [RPL2A] | 1.61 ± 0.071 | 1.51 ± 0.049 | 1.56 ± 0.12 | 1.56 ± 0.048
RLYLKDQTNHIESDSIL [ECM29] | 2.8 ± 0.062 | 2.76 ± 0.06 | 2.96 ± 0.048 | 2.62 ± 0.035
RMYEEASGKEVEKVATA [RPN2] | 2.67 ± 0.25 |  |  | 
RNSPFWWTNSHHDGKLW [PRP8] | 2.55 ± 0.069 | 2.85 ± 0.06 | 2.68 ± 0.041 | 2.78 ± 0.049
RNSWNFALIDYFYDLDV [BRN1] | 2.18 ± 0.057 | 1.87 ± 0.05 | 1.33 ± 0.093 | 2.06 ± 0.044
RPTEKPVGRELDPISLI [RPN13] | 2.95 ± 0.11 | 3.4 ± 0.12 | 3.33 ± 0.08 | 3.19 ± 0.094
RQKNVIHRAARPTRPDK [RPL15A] | 3.31 ± 0.17 | 3.69 ± 0.16 | 3.27 ± 0.066 | 3.24 ± 0.2
RQMNLVITLLNNSSITL [YCS4] | 1.37 ± 0.05 | 1.18 ± 0.039 | 1.19 ± 0.08 | 1.35 ± 0.035
RQPANTKIGAKRIHSVR [RPS8A] | 3.08 ± 0.076 | 3.26 ± 0.075 | 2.74 ± 0.07 | 3.04 ± 0.076
RQSSVGSLNATNFSPTP [SNF2] | 2.75 ± 0.049 | 2.98 ± 0.048 | 2.54 ± 0.044 | 2.96 ± 0.051
RQTGPAKINEVYNNSKD [NSL1] | 3.06 ± 0.087 | 3.06 ± 0.083 | 2.93 ± 0.073 | 2.9 ± 0.062
RRERRLIFGTIASKMSL [RPT3] | 2.31 ± 0.051 | 2.48 ± 0.068 | 2.36 ± 0.048 | 2.45 ± 0.038
RRIKEAEENLKKRIRLP [YIL149C/MLP2] | 2.26 ± 0.08 | 2.23 ± 0.067 | 1.88 ± 0.12 | 2.02 ± 0.07
RRRTYRAHGRINKYESS [RPL17A] | 1.87 ± 0.2 | 2.37 ± 0.094 | 1.9 ± 0.13 | 2.05 ± 0.065
RSCVSNSNENGTLERIK [RPN4] | 2.98 ± 0.07 | 3.07 ± 0.077 | 2.54 ± 0.065 | 2.95 ± 0.057
RSDGMGNVLLNATVVDS [YLR335W/NUP2] | 3.44 ± 0.15 | 3.15 ± 0.099 | 3.29 ± 0.099 | 3.15 ± 0.093
RSEEEVTKLNVLVDEIK [YIL149C/MLP2] | 3.42 ± 0.15 | 3.5 ± 0.11 | 3.24 ± 0.059 | 3.36 ± 0.082
RSILQSLNPALQEKIST [SWI1] | 2.45 ± 0.056 | 2.79 ± 0.069 | 2.72 ± 0.1 | 2.71 ± 0.073
RSISKELIVSEEIPINS [SIR3] | 2.07 ± 0.051 | 2.09 ± 0.051 | 2.07 ± 0.07 | 1.99 ± 0.036
RSISWAPSIGRWYQLIA [YGL100W/SEH1] | 1.26 ± 0.072 | 1.15 ± 0.075 | 1.16 ± 0.12 | 1.11 ± 0.063
RSKSSHKNERRVLEIQT [SKI6] | 3.22 ± 0.097 | 3.35 ± 0.087 | 3.23 ± 0.084 | 3.37 ± 0.061
RSLLLSRVRADDLSTRF [RRP43] | 2.89 ± 0.21 | 3.63 ± 0.17 |  | 2.92 ± 0.16
RSLRATAEERVGRRAAN [RPL15A] | 3.56 ± 0.24 | 3.52 ± 0.19 | 3.03 ± 0.2 | 2.95 ± 0.1
RSLVREIAGLSPYERRL [RPL36A] | 2.86 ± 0.13 | 3.5 ± 0.2 | 2.78 ± 0.12 | 2.82 ± 0.11
RSNDPQSSLSKVDIPLE [NUT2] | 3.02 ± 0.098 | 3.23 ± 0.094 | 3.27 ± 0.056 | 2.93 ± 0.15

Source: the supplement of paper PMC9732359
